± gives the standard deviation of the averaged measurements.
Assays:
MCF7 = assay: percentage of EdU-negative (G0-arrested) nuclei per well, 72 h; higher = more G0 arrest; conditions: reference: sequence is the full UniProt precursor, the tested protein was the secreted form or ectodomain
hTERT-HMEC = assay: as above; conditions: reference: sequence is the full UniProt precursor, the tested protein was the secreted form or ectodomain
[1] = protein concentration 0.0225 µM
[2] = protein concentration 0.03125 µM
[3] = protein concentration 0.3125 µM
[4] = protein concentration 0.00771429 µM
[5] = protein concentration 0.0771429 µM
[6] = protein concentration 0.01207 µM
[7] = protein concentration 0.1207 µM
[8] = protein concentration 0.0111429 µM
[9] = protein concentration 0.111429 µM
[10] = protein concentration 0.0076025 µM
[11] = protein concentration 0.076025 µM
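Note: secreted proteins added to cultured cells, EdU pulse at the end, nuclei found by Hoechst imaging, EdU status from nuclear versus surrounding ring intensity ratio, PBS as neutral control.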

“MAKMNLSSYILILTFSLFSQGILLSASKSIRNLDDDMVFNTFRLGKGFQKEDTAEKSVIAPSLEQYKNDESSFMNEEENKVSKNTGSKHNFLNHGLPLNLAIKPYLALKGSVAFPAENGVQNTESTQEKREIGDEENSAKFPIGRRDFDMLRCMLGRVYRPCWQV” was tested, and the “percentage of EdU-negative” value (MCF7; [1]) was 26 ± 2.4%, the “percentage of EdU-negative” value (MCF7; protein concentration 0.225 µM) was 26 ± 1.2% and the “percentage of EdU-negative” value (hTERT-HMEC; [1]) was 5.49 ± 0.6%. For the same sequence, the “percentage of EdU-negative” value (hTERT-HMEC; protein concentration 0.225 µM) was 5.82 ± 0.072%.

“MAKSFPVFSLLSFILIHLVLSSVSGPRHWWPPRGIIKVKCPYEKVNLSWYNGTVNPCPGLYQPICGTNFITYDNPCILCVESLKSHGRIRFYHDGKC [Q6IE38]” was tested, and the “percentage of EdU-negative” value (MCF7; [1]) was 24 ± 0.13%, the “percentage of EdU-negative” value (MCF7; protein concentration 0.225 µM) was 27 ± 1.2% and the “percentage of EdU-negative” value (hTERT-HMEC; [1]) was 6.19 ± 0.33%. For the same sequence, the “percentage of EdU-negative” value (hTERT-HMEC; protein concentration 0.225 µM) was 6.12 ± 0.94%.

With “MAKVFSFILVTTALTMGREISALEDCAQEQMRLRAQVRLLETRVKQQQVKIKQLLQENEVQFLDKGDENTVIDLGSKRQYADCSEIFNDGYKLSGFYKIKPLQSPAEFSVYCDMSDGGGWTVIQRRSDGSENFNRGWKDYENGFGNFVQKHGEYWLGNKNLHFLTTQEDYTLKIDLADFEKNSRYAQYKNFKVGDEKNFYELNIGEYSGTAGDSLAGNFHPEVQWWASHQRMKFSTWDRDHDNYEGNCAEEDQSGWWFNRCHSANLNGVYYSGPYTAKTDNGIVWYTWHGWWYSLKSVVMKIRPNDFIPNVI” the “percentage of EdU-negative” value (MCF7; [2]) was 24.5 ± 4.1%, the “percentage of EdU-negative” value (MCF7; [3]) was 22.8 ± 2.3% and the “percentage of EdU-negative” value (hTERT-HMEC; [2]) was 6.18 ± 1.3%. The “percentage of EdU-negative” value (hTERT-HMEC; [3]) was 5.22 ± 0.14%.

In the case of “MALAALMIALGSLGLHTWQAQAVPILPLGLAPDTFDDTYVGCAEEMEEKAAPLLKEEMAHHALLRESWEAAQETWEDKRRGLTLPPGFKAQNGIAIMVYTNSSNTLYWELNQAVRTGGGSRELYMRHFPFKALHFYLIRALQLLRGSGGCSRGPGEVVFRGVGSLRFEPKRLGDSVRLGQFASSSLDKAVAHRFGNATLFSLTTCFGAPIQAFSVFPKEREVLIPPHEVFLVTRFSQDGAQSLVTLWSYNQTCSHFNCAYLGGEKRRGCVSAPGALGTGDLHMTKRHLQQP [Q96L15]”, the “percentage of EdU-negative” value (MCF7; protein concentration 0.016 µM) is reported as 26.5 ± 3.2%, the “percentage of EdU-negative” value (MCF7; protein concentration 0.16 µM) is reported as 29 ± 1.5% and the “percentage of EdU-negative” value (hTERT-HMEC; protein concentration 0.016 µM) is reported as 5.18 ± 0.43%. The “percentage of EdU-negative” value (hTERT-HMEC; protein concentration 0.16 µM) was 7.23 ± 0.71%.

“MALDYLLLLLLASAVAAMEETLMDTRTATAELGWTANPASGWEEVSGYDENLNTIRTYQVCNVFEPNQNNWLLTTFINRRGAHRIYTEMRFTVRDCSSLPNVPGSCKETFNLYYYETDSVIATKKSAFWSEAPYLKVDTIAADESFSQVDFGGRLMKVNTEVRSFGPLTRNGFYLAFQDYGACMSLLSVRVFFKKCPSIVQNFAVFPETMTGAESTSLVIARGTCIPNAEEVDVPIKLYCNGDGEWMVPIGRCTCKPGYEPENSVACKACPAGTFKASQEAEGCSHCPSNSRSPAEASPICTCRTGYYRADFDPPEVACTSVPSGPRNVISIVNETSIILEWHPPRETGGRDDVTYNIICKKCRADRRSCSRCDDNVEFVPRQLGLTECRVSISSLWAHTPYTFDIQAINGVSSKSPFPPQHVSVNITTNQAAPSTVPIMHQVSATMRSITLSWPQPEQPNGIILDYEIRYYEKEHNEFNSSMARSQTNTARIDGLRPGMVYVVQVRARTVAGYGKFSGKMCFQTLTDDDYKSELREQLPLIAGSAAAGVVFVVSLVAISIVCSRKRAYSKEAVYSDKLQHYSTGRGSPGMKIYIDPFTYEDPNEAVREFAKEIDVSFVKIEEVIGAGEFGEVYKGRLKLPGKREIYVAIKTLKAGYSEKQRRDFLSEASIMGQFDHPNIIRLEGVVTKSRPVMIITEFMENGALDSFLRQNDGQFTVIQLVGMLRGIAAGMKYLAEMNYVHRDLAARNILVNSNLVCKVSDFGLSRYLQDDTSDPTYTSSLGGKIPVRWTAPEAIAYRKFTSASDVWSYGIVMWEVMSFGERPYWDMSNQDVINAIEQDYRLPPPMDCPAALHQLMLDCWQKDRNSRPRFAEIVNTLDKMIRNPASLKTVATITAVPSQPLLDRSIPDFTAFTTVDDWLSAIKMVQYRDSFLTAGFTSLQLVTQMTSEDLLRIGITLAGHQKKILNSIHSMRVQISQSPTAMA” was tested, and the “percentage of EdU-negative” value (MCF7; [4]) was 26.7 ± 1.5%, the “percentage of EdU-negative” value (MCF7; [5]) was 23.4 ± 1.5% and the “percentage of EdU-negative” value (hTERT-HMEC; [4]) was 4.82 ± 0.12%. The “percentage of EdU-negative” value (hTERT-HMEC; [5]) was 5.86 ± 0.98%.

With “MALEKSLVRLLLLVLILLVLGWVQPSLGKESRAKKFQRQHMDSDSSPSSSSTYCNQMMRRRNMTQGRCKPVNTFVHEPLVDVQNVCFQEKVTCKNGQGNCYKSNSSMHITDCRLTNGSRYPNCAYRTSPKERHIIVACEGSPYVPVHFDASVEDST” the “percentage of EdU-negative” value (MCF7; [2]) was 25.8 ± 0.52%, the “percentage of EdU-negative” value (MCF7; [3]) was 24.63 ± 0.044% and the “percentage of EdU-negative” value (hTERT-HMEC; [2]) was 4.76 ± 0.11%. The “percentage of EdU-negative” value (hTERT-HMEC; [3]) was 4.52 ± 0.25%.

With “MALFAVFQTTFFLTLLSLRTYQSEVLAERLPLTPVSLKVSTNSTRQSLHLQWTVHNLPYHQELKMVFQIQISRIETSNVIWVGNYSTTVKWNQVLHWSWESELPLECATHFVRIKSLVDDAKFPEPNFWSNWSSWEEVSVQDSTGQDILFVFPKDKLVEEGTNVTICYVSRNIQNNVSCYLEGKQIHGEQLDPHVTAFNLNSVPFIRNKGTNIYCEASQGNVSEGMKGIVLFVSKVLEEPKDFSCETEDFKTLHCTWDPGTDTALGWSKQPSQSYTLFESFSGEKKLCTHKNWCNWQITQDSQETYNFTLIAENYLRKRSVNILFNLTHRVYLMNPFSVNFENVNATNAIMTWKVHSIRNNFTYLCQIELHGEGKMMQYNVSIKVNGEYFLSELEPATEYMARVRCADASHFWKWSEWSGQNFTTLEAAPSEAPDVWRIVSLEPGNHTVTLFWKPLSKLHANGKILFYNVVVENLDKPSSSELHSIPAPANSTKLILDRCSYQICVIANNSVGASPASVIVISADPENKEVEEERIAGTEGGFSLSWKPQPGDVIGYVVDWCDHTQDVLGDFQWKNVGPNTTSTVISTDAFRPGVRYDFRIYGLSTKRIACLLEKKTGYSQELAPSDNPHVLVDTLTSHSFTLSWKDYSTESQPGFIQGYHVYLKSKARQCHPRFEKAVLSDGSECCKYKIDNPEEKALIVDNLKPESFYEFFITPFTSAGEGPSATFTKVTTPDEHSSMLIHILLPMVFCVLLIMVMCYLKSQWIKETCYPDIPDPYKSSILSLIKFKENPHLIIMNVSDCIPDAIEVVSKPEGTKIQFLGTRKSLTETELTKPNYLYLLPTEKNHSGPGPCICFENLTYNQAASDSGSCGHVPVSPKAPSMLGLMTSPENVLKALEKNYMNSLGEIPAGETSLNYVSQLASPMFGDKDSLPTNPVEAPHCSEYKMQMAVSLRLALPPPTENSSLSSITLLDPGEHYC” the “percentage of EdU-negative” value (MCF7; [1]) was 26.44 ± 0.24%, the “percentage of EdU-negative” value (MCF7; protein concentration 0.225 µM) was 24.9 ± 2% and the “percentage of EdU-negative” value (hTERT-HMEC; [1]) was 4.25 ± 0.45%. The “percentage of EdU-negative” value (hTERT-HMEC; protein concentration 0.225 µM) was 5.8 ± 0.95%.

For “MALFVRLLALALALALGPAATLAGPAKSPYQLVLQHSRLRGRQHGPNVCAVQKVIGTNRKYFTNCKQWYQRKICGKSTVISYECCPGYEKVPGEKGCPAALPLSNLYETLGVVGSTTTQLYTDRTEKLRPEMEGPGSFTIFAPSNEAWASLPAEVLDSLVSNVNIELLNALRYHMVGRRVLTDELKHGMTLTSMYQNSNIQIHHYPNGIVTVNCARLLKADHHATNGVVHLIDKVISTITNNIQQIIEIEDTFETLRAAVAASGLNTMLEGNGQYTLLAPTNEAFEKIPSETLNRILGDPEALRDLLNNHILKSAMCAEAIVAGLSVETLEGTTLEVGCSGDMLTINGKAIISNKDILATNGVIHYIDELLIPDSAKTLFELAAESDVSTAIDLFRQAGLGNHLSGSERLTLLAPLNSVFKDGTPPIDAHTRNLLRNHIIKDQLASKYLYHGQTLETLGGKKLRVFVYRNSLCIENSCIAAHDKRGRYGTLFTMDRVLTPPMGTVMDVLKGDNRFSMLVAAIQSAGLTETLNREGVYTVFAPTNEAFRALPPRERSRLLGDAKELANILKYHIGDEILVSGGIGALVRLKSLQGDKLEVSLKNNVVSVNKEPVAEPDIMATNGVVHVITNVLQPPANRPQERGDELADSALEIFKQASAFSRASQRSVRLAPVYQKLLERMKH”, the “percentage of EdU-negative” value (MCF7; [6]) was 25.4 ± 0.46%, the “percentage of EdU-negative” value (MCF7; [7]) was 28.3 ± 0.63% and the “percentage of EdU-negative” value (hTERT-HMEC; [6]) was 5.243 ± 0.015%. For the same sequence, the “percentage of EdU-negative” value (hTERT-HMEC; [7]) was 4.82 ± 0.7%.

In the case of “MALGLLIAVPLLLQAAPRGAAHYEMMGTCRMICDPYTAAPGGEPPGAKAQPPGPSTAALEVMQDLSANPPPPFIQGPKGDPGRPGKPGPRGPPGEPGPPGPRGPPGEKGDSGRPGLPGLQLTAGTASGVGVVGGGAGVGGDSEGEVTSALSATFSGPKIAFYVGLKSPHEGYEVLKFDDVVTNLGNHYDPTTGKFSCQVRGIYFFTYHILMRGGDGTSMWADLCKNGQVRASAIAQDADQNYDYASNSVVLHLDSGDEVYVKLDGGKAHGGNNNKYSTFSGFLLYPD [Q7Z5L3]”, the “percentage of EdU-negative” value (MCF7; [8]) is reported as 22.8 ± 1.6%, the “percentage of EdU-negative” value (MCF7; [9]) is reported as 30 ± 0.7% and the “percentage of EdU-negative” value (hTERT-HMEC; [8]) is reported as 5.39 ± 0.86%. For the same sequence, the “percentage of EdU-negative” value (hTERT-HMEC; [9]) was 5.7 ± 1.1%.

In the case of “MALGQKLFITMSRGAGRLQGTLWALVFLGILVGMVVPSPAGTRANNTLLDSRGWGTLLSRSRAGLAGEIAGVNWESGYLVGIKRQRRLYCNVGIGFHLQVLPDGRISGTHEENPYSLLEISTVERGVVSLFGVRSALFVAMNSKGRLYATPSFQEECKFRETLLPNNYNAYESDLYQGTYIALSKYGRVKRGSKVSPIMTVTHFLPRI”, the “percentage of EdU-negative” value (MCF7; [10]) is reported as 25.3 ± 0.82%, the “percentage of EdU-negative” value (MCF7; [11]) is reported as 25 ± 2.6% and the “percentage of EdU-negative” value (hTERT-HMEC; [10]) is reported as 4.73 ± 0.69%. The “percentage of EdU-negative” value (hTERT-HMEC; [11]) was 5.27 ± 0.17%.

With “MALGVPISVYLLFNAMTALTEEAAVTVTPPITAQQGNWTVNKTEADNIEGPIALKFSHLCLEDHNSYCINGACAFHHELEKAICRCFTGYTGERCEHLTLTSYAVDSYEKYIAIGIGVGLLLSGFLVIFYCYIRKRCLKLKSPYNVCSGERRPL” the “percentage of EdU-negative” value (MCF7; [2]) was 26.2 ± 0.87%, the “percentage of EdU-negative” value (MCF7; [3]) was 27 ± 2.6% and the “percentage of EdU-negative” value (hTERT-HMEC; [2]) was 5.25 ± 0.34%. The “percentage of EdU-negative” value (hTERT-HMEC; [3]) was 5.12 ± 0.77%.

From the supplement of paper PMC11316812
